In patent US20240116985A1 (published 2024):
Starred links: 1 amine or outer side, 2 acyl side, 3 side chain; linkers in the order of their positions; H or OH if unused. Positions of bridges follow the written chain, without caps; N, C: chain ends. Non-standard residues stand in square brackets, D forms with d. Primed or numbered codes have the meaning given here. B5(10) = 2-amino-2-(pent-4-en-1-yl)hept-6-enoic acid, bis(4-pentenyl)glycine, stitching residue bearing both staples, C=CCCCC(CCCC=C)(N[*:1])C(=O)[*:2]; PyrS2″ = (S)-3-amino-1-((pent-4-en-1-yloxy)carbonyl)pyrrolidine-3-carboxylic acid (stapling residue), C=CCCCOC(=O)N1CC[C@@](N[*:1])(C(=O)[*:2])C1; B5(4) = 2,2-bis(4-pentenyl)glycine = 2-amino-2-(pent-4-en-1-yl)hept-6-enoic acid (stitching residue), C=CCCCC(CCCC=C)(N[*:1])C(=O)[*:2]; B5(5) = 2,2-bis(4-pentenyl)glycine, 2-amino-2-(pent-4-en-1-yl)hept-6-enoic acid (stitching residue), C=CCCCC(CCCC=C)(N[*:1])C(=O)[*:2]; B5(20) = 2-amino-2-(pent-4-en-1-yl)hept-6-enoic acid = bis(4-pentenyl)glycine, stitching residue, C=CCCCC(CCCC=C)(N[*:1])C(=O)[*:2]; B5(21) = 2-amino-2-(pent-4-en-1-yl)hept-6-enoic acid, bis(4-pentenyl)glycine (stitching residue), C=CCCCC(CCCC=C)(N[*:1])C(=O)[*:2]; PyrS2 = (S)-3-amino-1-((pent-4-en-1-yloxy)carbonyl)pyrrolidine-3-carboxylic acid, C=CCCCOC(=O)N1CC[C@@](N[*:1])(C(=O)[*:2])C1; SeN = (S)-5-(((allyloxy)carbonyl)(methyl)amino)-2-amino-2-methylpentanoic acid, C=CCOC(=O)N(C)CCC[C@](C)(N[*:1])C(=O)[*:2]; Qui = (S)-2-amino-3-(quinolin-2-yl)propanoic acid, O=C([C@H](Cc1ccc2ccccc2n1)N[*:1])[*:2]; (NHiPr)AsnR = N4-isopropyl-L-asparagine, CC(C)NC(=O)C[C@H](N[*:1])C(=O)[*:2]; (NHEt)AsnR = N4-ethyl-L-asparagine, CCNC(=O)C[C@H](N[*:1])C(=O)[*:2]; Phe(2-CONH2) = NC(=O)c1ccccc1C[C@H](N)C(=O)O; Phe(2-Cl) = N[C@@H](Cc1ccccc1Cl)C(=O)O; Phe(2-OMe) = COc1ccccc1C[C@H](N)C(=O)O; 2Nal = N[C@@H](Cc1ccc2ccccc2c1)C(=O)O; Bta = N[C@@H](Cc1csc2ccccc12)C(=O)O; Lys(iPr) = CC(C)NCCCC[C@H](N)C(=O)O; αAllylPro = C=CC[C@@]1(C(=O)O)CCCN1; tBuAla = CC(C)(C)C[C@H](N)C(=O)O; S8 = C=CCCCCCC[C@](C)(N)C(=O)O

T1: beta-catenin (full-length, Uniprot ID P35222) (Homo sapiens (Human), UniProt P35222 2-781)
T1 construct: The FP protocol says 'full-length beta-Catenin (Uniprot ID P35222)'; also called bCat; B-Catenin
T1 sequence: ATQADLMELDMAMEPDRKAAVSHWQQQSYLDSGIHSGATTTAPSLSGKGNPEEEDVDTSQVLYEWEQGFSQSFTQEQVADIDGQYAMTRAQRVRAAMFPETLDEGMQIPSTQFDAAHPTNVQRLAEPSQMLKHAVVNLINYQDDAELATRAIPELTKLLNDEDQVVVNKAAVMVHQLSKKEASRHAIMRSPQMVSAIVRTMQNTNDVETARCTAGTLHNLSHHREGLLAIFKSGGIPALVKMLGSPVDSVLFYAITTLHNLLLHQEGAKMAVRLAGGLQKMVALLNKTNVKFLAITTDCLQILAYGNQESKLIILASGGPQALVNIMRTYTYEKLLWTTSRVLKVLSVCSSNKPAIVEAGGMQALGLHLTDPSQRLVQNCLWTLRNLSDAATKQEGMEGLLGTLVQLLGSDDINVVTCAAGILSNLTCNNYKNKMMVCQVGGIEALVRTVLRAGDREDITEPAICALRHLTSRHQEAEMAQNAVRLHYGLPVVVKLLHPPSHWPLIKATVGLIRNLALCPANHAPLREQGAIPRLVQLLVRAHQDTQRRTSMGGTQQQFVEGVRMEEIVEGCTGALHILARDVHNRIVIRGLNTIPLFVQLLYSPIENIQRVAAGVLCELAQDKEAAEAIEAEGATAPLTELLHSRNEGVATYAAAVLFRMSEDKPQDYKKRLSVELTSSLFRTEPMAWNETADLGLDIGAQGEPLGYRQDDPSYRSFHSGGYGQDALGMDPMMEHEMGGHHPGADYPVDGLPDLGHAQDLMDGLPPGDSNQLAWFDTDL

T2: full-length beta-Catenin (Uniprot ID P35222) (Homo sapiens (Human), UniProt P35222 1-781)
T2 construct: also called bCat; B-Catenin
T2 sequence: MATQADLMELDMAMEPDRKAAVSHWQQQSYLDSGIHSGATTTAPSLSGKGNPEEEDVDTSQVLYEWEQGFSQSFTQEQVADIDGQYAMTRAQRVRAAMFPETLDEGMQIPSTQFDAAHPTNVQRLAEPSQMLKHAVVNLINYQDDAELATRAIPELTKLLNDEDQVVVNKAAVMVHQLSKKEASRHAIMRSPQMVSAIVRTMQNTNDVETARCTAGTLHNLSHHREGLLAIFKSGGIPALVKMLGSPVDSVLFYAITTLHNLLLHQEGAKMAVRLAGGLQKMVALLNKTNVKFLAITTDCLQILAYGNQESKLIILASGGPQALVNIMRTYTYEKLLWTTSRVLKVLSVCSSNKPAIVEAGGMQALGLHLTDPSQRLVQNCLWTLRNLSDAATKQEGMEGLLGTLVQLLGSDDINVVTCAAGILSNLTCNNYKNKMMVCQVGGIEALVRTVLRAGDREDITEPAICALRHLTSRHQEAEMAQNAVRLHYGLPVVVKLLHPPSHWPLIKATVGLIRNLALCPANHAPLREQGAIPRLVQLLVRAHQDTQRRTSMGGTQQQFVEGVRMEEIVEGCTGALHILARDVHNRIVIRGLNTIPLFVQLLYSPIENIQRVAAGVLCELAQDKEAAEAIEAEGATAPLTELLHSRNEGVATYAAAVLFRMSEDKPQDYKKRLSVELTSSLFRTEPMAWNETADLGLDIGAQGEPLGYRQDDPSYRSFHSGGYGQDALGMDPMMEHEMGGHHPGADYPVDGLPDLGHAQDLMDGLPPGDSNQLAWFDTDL

T3: B-cat-Halo (UniProt P35222 1-781)
T3 sequence (looked up): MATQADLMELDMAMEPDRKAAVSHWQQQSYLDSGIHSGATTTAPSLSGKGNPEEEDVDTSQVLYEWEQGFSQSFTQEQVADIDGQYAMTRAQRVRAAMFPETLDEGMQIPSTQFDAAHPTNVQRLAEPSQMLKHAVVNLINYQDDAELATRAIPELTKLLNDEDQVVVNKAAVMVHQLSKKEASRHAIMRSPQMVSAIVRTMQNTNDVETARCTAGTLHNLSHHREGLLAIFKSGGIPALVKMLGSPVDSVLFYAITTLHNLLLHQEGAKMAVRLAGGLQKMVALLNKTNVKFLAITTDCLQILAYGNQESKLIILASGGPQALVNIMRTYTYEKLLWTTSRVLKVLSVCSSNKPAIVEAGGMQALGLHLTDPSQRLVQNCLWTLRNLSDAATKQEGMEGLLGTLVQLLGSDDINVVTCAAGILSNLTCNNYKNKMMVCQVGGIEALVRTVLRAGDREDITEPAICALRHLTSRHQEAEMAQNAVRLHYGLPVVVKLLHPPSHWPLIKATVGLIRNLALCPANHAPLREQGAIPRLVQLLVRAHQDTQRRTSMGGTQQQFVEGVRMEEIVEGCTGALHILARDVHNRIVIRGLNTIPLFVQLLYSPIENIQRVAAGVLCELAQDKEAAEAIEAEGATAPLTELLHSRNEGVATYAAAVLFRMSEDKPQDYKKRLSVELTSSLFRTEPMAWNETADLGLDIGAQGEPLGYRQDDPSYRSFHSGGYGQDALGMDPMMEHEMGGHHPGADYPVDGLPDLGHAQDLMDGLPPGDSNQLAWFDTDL


Assays:
[1] = target: T1, beta-catenin (full-length, Uniprot ID …); experiment: fluorescence polarization competition vs 5FAM-TCF4(10-53) on full-length beta-catenin
Procedure: (§1) The plate was incubated protected from light for 60 minutes at 20° C. prior to read. Reads were performed on a CLARIOstar plate reader (BMG Labtech) in duplicate, and data were fitted to a 1:1 binding model with hill slope using an in-house script. All provided concentrations are final concentrations.

[2] = target: T2, full-length beta-Catenin (Uniprot ID …); experiment: fluorescence polarization competition; 10 nM full-length beta-catenin + 10 nM 5FAM-TCF4(10-53) probe
Procedure: as §1

B-cat-Halo = target: T3, B-cat-Halo; experiment: cell-based or functional assay

EC50 [2] [µM] | NanoBRET Abs IC50 (B-cat-Halo) [µM] | Binder | further results
 |  | Ac-[αAllylPro]DA[B5(4)]DEAAFV[SeN]FWQ-NH2 (staple 1-4, 4-11, Stapled peptide) [I-131: Ac-PL3-Asp-Ala-B5-Asp-Glu-Ala-Ala-Phe-Val-SeN-Phe-Trp-Gln-NH2] | IC50 [1]: 2.16 µM
0.143 |  | Ac-[αAllylPro]DA[B5(20)]DEAAFN[S8][Phe(2-CONH2)][Bta]H-NH2 (staple 1-4, 4-11, Stapled peptide composition; also called Ac-PL3-Asp-Ala-B5-Asp-Glu-Ala-Ala-Phe-Asn-S8-2CBMF-BztA-His-NH2) [I-513] | 
 |  | Ac-[αAllylPro]DA[B5(21)]DEAAFV[S8]F[2Nal]Q-NH2 (staple 1-4, 4-11, Stapled peptide) [I-140: Ac-PL3-Asp-Ala-B5-Asp-Glu-Ala-Ala-Phe-Val-S8-Phe-2NapA-Gln-NH2] | IC50 [1]: 2.27 µM
5 |  | Ac-[αAllylPro]DA[B5(21)][(NHiPr)AsnR]DAAFV[S8]F[Bta]Q-NH2 (staple 1-4, 4-11, Stapled peptide composition; also called Ac-PL3-Asp-Ala-B5-[NHiPr]AsnR-Asp-Ala-Ala-Phe-Val-S8-Phe-BztA-Gln-NH2) [I-535] | 
 |  | Ac-[αAllylPro]DA[B5(4)]DEAAFV[S8]F[Qui]Q-NH2 (staple 1-4, 4-11, Stapled peptide) [I-143: Ac-PL3-Asp-Ala-B5-Asp-Glu-Ala-Ala-Phe-Val-S8-Phe-Qui-Gln-NH2] | IC50 [1]: 2.27 µM
 | > 20 | Ac-[αAllylPro]D[tBuAla][B5(5)]DD[Lys(iPr)]AFL[PyrS2][Phe(2-Cl)][Bta]L-NH2 (staple 1-4, 4-11; not fully specified; printed as Ac-PL3-Asp-Npg-B5-Asp-Asp-iPrLys-Ala-Phe-Leu-PyrS2-2C1F-BztA-Leu-NH2) [I-1277] | 
 |  | XDAXDEAAFVXFWX (not fully specified; N-terminal Ac; PL3 at 1; B5 at 4; S8 at 11; Aib at 14; C-terminal NH2; stapled by olefin metathesis (PL3-B5 and B5-S8), Stapled peptide) [I-133: Ac-PL3-Asp-Ala-B5-Asp-Glu-Ala-Ala-Phe-Val-S8-Phe-Trp-Aib-NH2] | IC50 [1]: 5 µM
0.02 |  | Ac-[αAllylPro]DI[B5(20)]DEAAFN[S8][Phe(2-OMe)][Bta]H-NH2 (staple 1-4, 4-11, Stapled peptide composition; also called Ac-PL3-Asp-Ile-B5-Asp-Glu-Ala-Ala-Phe-Asn-S8-2OMeF-BztA-His-NH2) [I-512] | 
0.03 |  | Ac-[αAllylPro]DI[B5(20)]DEAAFN[S8][Phe(2-CONH2)][Bta]H-NH2 (staple 1-4, 4-11, Stapled peptide composition; also called Ac-PL3-Asp-Ile-B5-Asp-Glu-Ala-Ala-Phe-Asn-S8-2CBMF-BztA-His-NH2) [I-514] | 
 | 27.8 | Ac-[αAllylPro]D[tBuAla][B5(5)]DD[Lys(iPr)]AFL[PyrS2″][Phe(2-Cl)][Bta]Q-NH2 (staple 1-4; staple 4-11 (inferred); not fully specified; printed as Ac-PL3-Asp-Npg-B5-Asp-Asp-iPrLys-Ala-Phe-Leu-PyrS2-2C1F-BztA-Gln-NH2) [I-1275] | 
 | 22.9 | Ac-[αAllylPro]D[tBuAla][B5(10)]DDAAF[Lys(iPr)][PyrS2][Phe(2-Cl)][Bta]T-NH2 (staple 1-4, 4-11) [I-1279] | 
4.47 |  | Ac-[αAllylPro]DA[B5(21)][(NHEt)AsnR]DAAFV[S8]F[Bta]Q-NH2 (staple 1-4, 4-11, Stapled peptide composition; also called Ac-PL3-Asp-Ala-B5-[NHEt]AsnR-Asp-Ala-Ala-Phe-Val-S8-Phe-BztA-Gln-NH2) [I-536] | 
 | > 20 | Ac-[αAllylPro]D[tBuAla][B5(5)]DD[Lys(iPr)]AFT[PyrS2″][Phe(2-Cl)][Bta]L-NH2 (staple 1-4; staple 4-11 (inferred); not fully specified; printed as Ac-PL3-Asp-Npg-B5-Asp-Asp-iPrLys-Ala-Phe-Thr-PyrS2-2C1F-BztA-Leu-NH2) [I-1274] | 
 | 24.7 | Ac-[αAllylPro]D[tBuAla][B5(10)]DDAAF[Lys(iPr)][PyrS2][Phe(2-Cl)][Bta]L-NH2 (staple 1-4, 4-11) [I-1280] | 
